This is an account of results in IntAct's records for PubMed 33053321.

The chains are these.
B1: Signal recognition particle subunit SRP54 (Saccharomyces cerevisiae), P20424 (parent)
chain: MVLADLGKRINSAVNNAISNTQDDFTTSVDVMLKGIVTALLESDVNIALVSKLRNNIRSQLLSENRSEKSTTNAQTKKLIQKTVFDELCKLVTCEGSEEKAFVPKKRKTNIIMFVGLQGSGKTTSCTKLAVYYSKRGFKVGLVCADTFRAGAFDQLKQNAIRARIPFYGSYTETDPAKVAEEGINKFKKEKFDIIIVDTSGRHHQEEELFQEMIEISNVIKPNQTIMVLDASIGQAAEQQSKAFKESSDFGAIILTKMDGHARGGGAISAVAATNTPIIFIGTGEHIHDLEKFSPKSFISKLLGIGDIESLFEQLQTVSNKEDAKATMENIQKGKFTLLDFKKQMQTIMKMGPLSNIAQMIPGMSNMMNQVGEEETSQKMKKMVYVLDSMTKEELESDGRMFIEEPTRMVRVAKGSGTSVFEVEMILMQQQMMARMAQTATQQQPGAPGANARMPGMPNMPGMPNMPGMPNMPGMPKVTPQMMQQAQQKLKQNPGLMQNMMNMFGGGMGGGMGGGMPDMNEMMKMMQDPQMQQMAKQFGMG
partner: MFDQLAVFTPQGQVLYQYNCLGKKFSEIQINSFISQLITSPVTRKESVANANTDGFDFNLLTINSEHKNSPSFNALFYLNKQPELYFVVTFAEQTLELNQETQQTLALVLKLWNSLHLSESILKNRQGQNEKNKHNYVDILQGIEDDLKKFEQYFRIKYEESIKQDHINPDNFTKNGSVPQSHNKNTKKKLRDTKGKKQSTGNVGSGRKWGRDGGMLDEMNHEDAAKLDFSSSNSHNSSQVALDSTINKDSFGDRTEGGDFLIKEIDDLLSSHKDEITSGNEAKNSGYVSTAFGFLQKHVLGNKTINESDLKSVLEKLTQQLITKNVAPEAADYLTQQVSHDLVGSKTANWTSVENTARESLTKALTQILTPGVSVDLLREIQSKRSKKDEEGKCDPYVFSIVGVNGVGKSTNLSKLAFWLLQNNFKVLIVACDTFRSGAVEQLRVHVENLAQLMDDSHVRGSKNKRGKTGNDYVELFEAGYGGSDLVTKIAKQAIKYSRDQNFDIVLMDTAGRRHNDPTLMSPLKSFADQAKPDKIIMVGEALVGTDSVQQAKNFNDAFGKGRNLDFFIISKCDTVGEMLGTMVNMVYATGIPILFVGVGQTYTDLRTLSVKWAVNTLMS
B2: Signal recognition particle subunit SRP54 (Homo sapiens), P61011 (parent)
chain: MVLADLGRKITSALRSLSNATIINEEVLNAMLKEVCTALLEADVNIKLVKQLRENVKSAIDLEEMASGLNKRKMIQHAVFKELVKLVDPGVKAWTPTKGKQNVIMFVGLQGSGKTTTCSKLAYYYQRKGWKTCLICADTFRAGAFDQLKQNATKARIPFYGSYTEMDPVIIASEGVEKFKNENFEIIIVDTSGRHKQEDSLFEEMLQVANAIQPDNIVYVMDASIGQACEAQAKAFKDKVDVASVIVTKLDGHAKGGGALSAVAATKSPIIFIGTGEHIDDFEPFKTQPFISKLLGMGDIEGLIDKVNELKLDDNEALIEKLKHGQFTLRDMYEQFQNIMKMGPFSQILGMIPGFGTDFMSKGNEQESMARLKKLMTIMDSMNDQELDSTDGAKVFSKQPGRIQRVARGSGVSTRDVQELLTQYTKFAQMVKKMGGIKGLFKGGDMSKNVSQSQMAKLNQQMAKMMDPRVLHHMGGMAGLQSMMRQFQQGAAGNMKGMMGFNNM
partner: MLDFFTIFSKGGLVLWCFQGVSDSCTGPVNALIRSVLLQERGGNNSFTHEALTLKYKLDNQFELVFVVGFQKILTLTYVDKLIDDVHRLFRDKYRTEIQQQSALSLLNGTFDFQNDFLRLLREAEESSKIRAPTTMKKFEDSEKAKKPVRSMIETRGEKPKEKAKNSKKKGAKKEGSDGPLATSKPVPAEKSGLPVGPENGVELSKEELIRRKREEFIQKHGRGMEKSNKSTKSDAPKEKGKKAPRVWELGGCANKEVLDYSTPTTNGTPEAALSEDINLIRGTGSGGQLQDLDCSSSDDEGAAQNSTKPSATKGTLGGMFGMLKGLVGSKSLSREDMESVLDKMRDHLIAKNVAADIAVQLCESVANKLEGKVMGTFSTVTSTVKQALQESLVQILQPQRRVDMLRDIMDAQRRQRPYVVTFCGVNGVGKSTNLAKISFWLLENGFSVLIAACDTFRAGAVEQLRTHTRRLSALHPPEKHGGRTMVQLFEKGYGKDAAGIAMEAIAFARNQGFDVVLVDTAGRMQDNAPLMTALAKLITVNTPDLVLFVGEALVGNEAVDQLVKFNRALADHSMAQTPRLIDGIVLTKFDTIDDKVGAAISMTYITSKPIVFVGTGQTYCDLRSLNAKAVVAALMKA

In the first experiment the parent is B1. The note with it: with srpr_yeast SRP101, P32916.
For the variant MVLADLGKRINSAVNNAISNTQDDFTTSVDVMLKGIVTALLESDVNIALVSKLRNNIRSQLLSENRSEKSTTNAQTKKLIQKTVFDELCKLVTCEGSEEKAFVPKKRKTNIIMFVGLQGSGKTTSCTKLAVYYSKRGFKVGLVCADTFRAGAFDQLKQNAIRARIPFYGSYTETDPAKVAEEGINKFKKEKFDIIIVDTSGRHHQEEELFQEMIEISNVIKPNQTIMVLDASIEQAAEQQSKAFKESSDFGAIILTKMDGHARGGGAISAVAATNTPIIFIGTGEHIHDLEKFSPKSFISKLLGIGDIESLFEQLQTVSNKEDAKATMENIQKGKFTLLDFKKQMQTIMKMGPLSNIAQMIPGMSNMMNQVGEEETSQKMKKMVYVLDSMTKEELESDGRMFIEEPTRMVRVAKGSGTSVFEVEMILMQQQMMARMAQTATQQQPGAPGANARMPGMPNMPGMPNMPGMPNMPGMPKVTPQMMQQAQQKLKQNPGLMQNMMNMFGGGMGGGMGGGMPDMNEMMKMMQDPQMQQMAKQFGMG [G234E], the “effect of a mutation on the interaction” value is listed as “disrupting interaction strength”.

Variants of B2 are the subject of the next experiment. The note with it: with srpra_human SRPRA.
In the case of T115A, the “effect of a mutation on the interaction” value is listed as “decreasing interaction strength”.
For the variant G226E, the “effect of a mutation on the interaction” value is recorded as “disrupting interaction strength”.
